Measurements reported in patent US20170183667A1 (ANAEROPHARMA SCIENCE, published 2017).

T1: Recombinant Human CTLA-4-Fc Chimera, carrier-free (BioLegend) (human, UniProt P16410 36-161)
T1 construct: Bought reagent; also called hCTLA-4; Fc part of the bought chimera not given, not described
T1 sequence (looked up): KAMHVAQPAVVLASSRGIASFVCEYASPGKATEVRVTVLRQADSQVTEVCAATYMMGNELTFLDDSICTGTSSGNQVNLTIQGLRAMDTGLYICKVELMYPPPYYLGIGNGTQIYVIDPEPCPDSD

T2: Recombinant Mouse PD-1 Fc Chimera (R&D Systems) (mouse, UniProt Q02242 25-167)
T2 construct: Bought reagent; also called mPD-1; Fc part of the bought chimera not given, not described
T2 sequence (looked up): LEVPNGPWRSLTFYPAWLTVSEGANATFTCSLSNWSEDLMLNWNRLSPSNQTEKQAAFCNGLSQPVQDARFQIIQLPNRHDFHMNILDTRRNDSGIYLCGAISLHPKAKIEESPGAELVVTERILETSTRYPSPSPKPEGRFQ


Tests used:
[1] = biological target: T1, Recombinant Human CTLA-4-Fc Chimera, …; assay: ELISA, hCTLA-4-Fc chimera immobilised
[2] = biological target: T2, Recombinant Mouse PD-1 Fc Chimera (R&D …); assay: ELISA, mPD-1 Fc chimera immobilised, scFv 10 ng/mL
Method: (§1) After the solution was removed, 350 μL of 1×PBS was dispensed and the solution was removed. This operation was repeated three times to carry out washing. In the above plates, 350 μL of a 1% BSA solution was dispensed and incubated at room temperature for 2 hours to perform blocking. After the solution was removed, 350 μL of 1×PBS was dispensed and the solution was removed. This operation was repeated three times to carry out washing.
(§2) The anti-PD-1-3 scFv antibody purified from a bacterium of the genus Bifidobacterium was diluted with a signal enhancing reagent (Signal Enhancer HIKARI, manufactured by Nacalai Tesque) to prepare solutions having a concentration of 1000 ng/mL, 100 ng/mL and 10 ng/mL. Each solution (100 μL) was dispensed in the plates to which blocking treatment was already applied. […] To blank wells, a signal enhancing reagent (100 μL) alone was dispensed. After the plates were sealed and incubated at room temperature for 2 hours, immobilized mPD-1 was allowed to react with the anti-PD-1-3 scFv antibody. After the solution was removed, 350 μL of 1×PBS was dispensed and the solution was removed. This operation was repeated three times to carry out washing.
(§3) Absorbance at 450 nm was measured, whereas absorbance at 570 nm was measured as a control.

[3] = biological target: T2, Recombinant Mouse PD-1 Fc Chimera (R&D …); assay: ELISA, mPD-1 Fc chimera immobilised, scFv 100 ng/mL
Method: as §1, §2, §3

[4] = biological target: T2, Recombinant Mouse PD-1 Fc Chimera (R&D …); assay: ELISA, mPD-1 Fc chimera immobilised, scFv 1000 ng/mL
Method: as §1, §2, §3

[5] = biological target: T3, Recombinant Human PD-1 Fc Chimera (R&D Systems) (human, UniProt Q15116 25-167); assay: ELISA, hPD-1 Fc chimera immobilised, scFv 1 ng/mL
T3 construct: Bought reagent; also called hPD-1; Fc part of the bought chimera not given, not described
T3 sequence (Q15116 25-167, change not shown): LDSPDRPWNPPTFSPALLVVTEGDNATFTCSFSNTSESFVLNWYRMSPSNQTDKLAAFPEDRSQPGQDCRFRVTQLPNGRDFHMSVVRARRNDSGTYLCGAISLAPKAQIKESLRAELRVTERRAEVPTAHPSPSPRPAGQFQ
Method: (§4) After the solution was removed, 350 μL of 1×PBS was dispensed and the solution was removed. This operation was repeated three times to carry out washing. In the above plates, 350 μL of a 1% BSA solution was dispensed and incubated at room temperature for 2 hours to carry out blocking. After removing the solution, 350 μL of 1×PBS was dispensed and the solution was removed. This operation was repeated three times to carry out washing.
(§5) Each solution (100 μL) was dispensed in the plates to which blocking treatment was already applied. […] To a blank well, a signal enhancing reagent (100 μL) alone was dispensed. After the plates were sealed and incubated at room temperature for 2 hours, immobilized hPD-1 was allowed to react with each of the scFv antibodies. After the solution was removed, 350 μL of 1×PBS was dispensed and the solution was removed. This operation was repeated three times to carry out washing.
(§6) This solution (200 μL) was dispensed in the plates. The plates were sealed and incubated at room temperature for 20 minutes. […] Absorbance at 450 nm was measured, whereas absorbance at 570 nm was measured as a control.

[6] = biological target: T3, Recombinant Human PD-1 Fc Chimera (R&D …); assay: ELISA, hPD-1 Fc chimera immobilised, scFv 10 ng/mL
Method: as §4, §5, §6

[7] = biological target: T3, Recombinant Human PD-1 Fc Chimera (R&D …); assay: ELISA, hPD-1 Fc chimera immobilised, scFv 100 ng/mL
Method: as §4, §5, §6

[8] = biological target: T3, Recombinant Human PD-1 Fc Chimera (R&D …); assay: ELISA, hPD-1 Fc chimera immobilised, scFv 1000 ng/mL
Method: as §4, §5, §6

| binding result [1] | absorbance 450 nm (570 nm as control) [2] | absorbance 450 nm (570 nm as control) [3] | absorbance 450 nm (570 nm as control) [4] | absorbance 450 nm (570 nm as control) [5] | absorbance 450 nm (570 nm as control) [6] | absorbance 450 nm (570 nm as control) [7] | absorbance 450 nm (570 nm as control) [8] | Binder |
| --- | --- | --- | --- | --- | --- | --- | --- | --- |
| no binding (tested: up to 1000 ng/mL) | 0.312 | 0.561 | 3.11 |  |  |  |  | anti-PD-1-3 scFv antibody purified from Bifidobacterium longum 105-A/pHuSP7L20-scFv-PD-1-3 strain (scFv, also called anti-mouse PD-1 scFv antibody; mPD-1 scFv) scFv: DSAQTSAVVSSRSFPKASSVMEVRLLESGGGLVKPEGSLKLSCVASGFTFSDYFMSWVRQAPGKGLEWVAHIYTKSYNYATYYSGSVKGRFTISRDDSRSMVYLQMNNLRTEDTATYYCTRDGSGYPSLDFWGQGTQVTVSSGGGGSGGGGSGGGGSYELTQPPSASVNVGETVKITCSGDQLPKYFADWFHQRSDQTILQVIYDDNKRPSGIPERISGSSSGTTATLTIRDVRAEDEGDYYCFSGYVDSDSKLYVFGSGTQLTVLGHHHHHH |
|  | 0.075 | -0.01 | 0.014 | 0.058 | 0.912 | 3.06 | 2.82 | anti-PD-1-2 scFv antibody purified from Bifidobacterium longum 105-A/pHuSP7L20-scFv-PD-1-2 strain (scFv, also called anti-human PD-1 antibody) scFv: DSAQTSAVVSSRSFPKASSVMQVQLQESGPGLVKPSQSLSLTCTVTGHSITSDYAWNWIRQFPGDKLEWMGYISYSGYTTYNPSLKSRVSITRDTSKNQFFLQLNSVTTEDTATYFCARDLDYGPWFAYWGQGTTVTVSSGGGGSGGGGSGGGGSDIQMTQSPASLSASVGETVTLTCRASENIHNYLAWYQQKQGKSPQLLVYNVKTLADGVPSRFSGSGSGTQYSLKINSLQPEDFGSYYCQHFWSSPWTFGGGTKLEIKRHHHHHH |
|  |  |  |  | -0.092 | -0.106 | -0.117 | -0.038 | anti-CTLA-4-1 scFv antibody purified from Bifidobacterium longum 105-A/pHuSP7L20-scFv-CTLA-4-1 strain (scFv) scFv: DSAQTSAVVSSRSFPKASSVQVQLVESGGGVVQPGRSLRLSCAASGFTFSSYGMHWVRQAPGKGLEWVAVIWYDGSNKYYADSVKGRFTISRDNSKNTLYLQMNSLRAEDTAVYYCARDPRGATLYYYYYGMDVWGQGTTVTVSSGGGGSGGGGSGGGGSDIQMTQSPSSLSASVGDRVTITCRASQSINSYLDWYQQKPGKAPKLLIYAASSLQSGVPSRFSGSGSGTDFTLTISSLQPEDFATYYCQQYYSTPFTFGPGTKVEIKHHHHHH |
